{
  "source": "the DeepSol protein solubility set",
  "data": [
    {"assay": "soluble on expression in E. coli; label from the status in PepcDB or PDB records", "values": [
      {"sequence": "MAQEKMDLDFEADTSEGATLRRSNSAPLIHVLSDLSQVFEPYPLRTGRTSTAIMSHHSLEEGLDMMNRETTNEREAQAGMQISQSWDESLSLSGSDFDKPEKLYSPKRIDFTPVSPAPSPTRGFGKQCLSPSLQMFVSSSGMPPSPVLNPRHFSRRSQSPVKCIRPSVLGPLKRKGEMEMESQPKRPFQGTTSMLSTNPAQLSDFSSCSDILDGSSISSGLSSDSLATGSAPAESPVACSNSCSPFILMDDLSPK", "soluble on expression in E. coli": "not soluble"},
      {"sequence": "MLTPISIEKEHIRLINLLHFINEQNRWFTIKELSDYLQVADKTVRKYLKLLEDEIPPSWNLLVQKGKGIYLKKPLNESLSFVESKILRKSLNLQICEELVFKKNSMQSLAQKLHLQVGALYPIINQINYDIQSSHLNIKKKPLEISGREQDVRVFMLRLYCNIPNDYWPFPYINKQNITDLINKMEKILNVQMYTYSKHKLCVLFAITISRLLSGNTIDNVSGLILVNKNDDHYKTVASITSELQNSFGVTLHETEISFLALALLLSLGNSITTDSNKTLTSYKKTIMPLAKEITKGIEHKLQLGINYDESFLTYVVLIIKKALDKNFIQYYNYNIKFIRHIKQRHPNTFNTIQECISNLNYTVYSHFDCYEISLLTMHFETQRMLFKNNPKKIYVYTSQGCIHREYISALLEKRYNGLIKIVRNTIINLTNESLQDMEIDIIISNVNLPIKNIPIVQISEFPTERDFHEIKKII", "soluble on expression in E. coli": "not soluble"},
      {"sequence": "GPGSMNHLAGKIHVVQTPEEGRRFSLEQVVLPVLGNGAERLVSPDGKMREASERLAQELQIEGLMKMKAAPPATYRRLVVRPRDFTYCLFDDERGWCWESNNEAPIRPQLWEDQEGIMRQLSPLSVATGKNIIARNGIRGAEQRSHFLKAARRSGMTCVLRMTLPRGSAVTSALREAFQFATLDPGVIFHLLR", "soluble on expression in E. coli": "not soluble"},
      {"sequence": "MSLGLLDNVKKMVKKEATENPQQTSDDQKQVQAIHVTNGIDPKVIDAMNERMTKIENDLGKLSGEMEGQKKTLNDIKNELEGIKENVKMVVSLYELVSRDFNPFMDKTPEEIRGITDTLAEQVNNVKQLVEAAIKDLRELYGVPDIDQFIQMEEKKEGHHHHHH", "soluble on expression in E. coli": "soluble"},
      {"sequence": "MDNDGINADPMELEKFSQLAHHWWDPNSEFKPLHEINPLRLNYIDEIIGGLSEKTVIDVGCGGGILSESMAARGASVTGIDLSDKALKVAKLHLLESGNQVDYRKITVEALATERPRYYDVVTCMEMLEHVPDPASVIQSCARLVKSGGWVFFSTLNRNPKSYLYAIIGAEYILRLLPRGTHEYAKFIKPSELAHMARSAGLMESGIVGMTYNPITKVYALEADTSVNYIMAFRA", "soluble on expression in E. coli": "not soluble"},
      {"sequence": "MSLAKSNDKTVTMYSIGPRLKAFSDWLLKTMAAGNLGVIFPAASREYAPLVEELWRDAAIQATYKRRSELGLLPSVANYFLERAIDVLTPDYEPSDVDILYAEGVTSSSGLACLDFSFPQTASEENLDPSDHHDSLLRYQLIRVPSRGLGENCKWIDMFEDVGMVVFVVSMSDYDQVSEDGTNKMLLTKKLFESIITHPIFENMDFLLILNKYDLLEEKVERVPLARCEWFQDFNPVVSRHRGSNNGNPTLGQLAFHFMAVKFKRFYSSLTGKKLFVSSSKSLDPNSVDSSLKLAMEILKWSEERTNICMSEYSMYSTEGHHHHHH", "soluble on expression in E. coli": "not soluble"},
      {"sequence": "EVVVVGYSTQKKESLTGALQTVKSDKLKDITTPSVENMLNGKVPGVYVAPGSGQPGSGGAVVIRGQATLSGTTAPLWVIDGVIVGSNAGALNPSDIETMTILKDAASTAIYGSQGANGVILVTTKNGK", "soluble on expression in E. coli": "not soluble"},
      {"sequence": "MGSDKIHHHHHHMTEGISIAVLDNDSWSLRAIARWIDGSSPLYHVIWQTTSAAEAIHRCIYTNDKPNVLLLDMALNDATGISVCTQIRKRTADIGIIGITAYDPERYKTDLALAGGQALIAKENLAHVCNKVLPIVAQGKSAEPNSFPTAKQAHDILAEQPSSFSQIKQLSPRELQVLRLYTQNNNTSEIASQLGISSNTVFSYIHRVSKKIGTKNRSEIIRLCKKYDIL", "soluble on expression in E. coli": "not soluble"},
      {"sequence": "MSLKIAIVGSGNGAVTAAVDMVDKGHDVRLYCRNESISKFDVALEKGGFDFNNEGEEKFIEFTDISDDMEYVLDGADIVQVIIPSSFIEYYAKVMSKFVTNDHLIFFNIAASMGSIRFMNVLEDRHIDVHPHFAEANTLTYGTRVDFNNAKVDLSLNVRRVFFSTFDRSELNESYEKVSKIYDYLVKEESLLKTNLENGNPEVHPGPTLLNVGRIDYSEEFSLYKEGITKHTVRLLHAIEIERLNLGRKLGFELSTAKESRIQRGYLERKDEDEPLNRLFNTSPVFSQIPGPNHVENRYLTEDIAYGLVLWSSLGRVIDVPTPNIDAVIMIASTILERDFFEEGLTIEELGLDKLGLEEGHHHHHH", "soluble on expression in E. coli": "soluble"},
      {"sequence": "SQVDVKDCANHEIKKVLVPGCHGSEPCIIHRGKPFQLEAVFEANQNTKTAKIEIKASIDGLEVDVPGIDPNACHYMKCPLVKGQQYDIKYTWNVPKIAPKSENVVVTVKVMGDDGVLACAIATHAKIRD", "soluble on expression in E. coli": "soluble"},
      {"sequence": "MGSDKIHHHHHHACSGQLDTIQEYLDAGETIYAAKMDSVDIRPGYNRVEVTGLLKYGMDTERCVIHWTPDNDSLVVPVKRIDPVDTFRVFIENLPEGTYQFEIVTYNKSGYRSISTSKGSKTYGDRYISSLRVRSLLSTEVEGENLLLNFSSEMAEALATKVFYLNSAGEKQEQEVARGDNQIKITDWKPRGAYEVKTYYIPEVNAVDTFSVSSTGVFPEKIVEMDKSTFREIILDNDIRLNAWGGALWKAWDNAYENTNYAHSDNTNPIVFPAWFTFDLGEKALLKRFDLFSVVRDDLNYNGGNMKSWEIWGREDEPANSSWDGWTKLITCNSFKPSGKPVGENTDEDNSYIAKGEKFDFPSGIPEVRYIRIKVLDSWSGQGYVQFSEFTFYKSE", "soluble on expression in E. coli": "not soluble"},
      {"sequence": "MSLPSERELGKELEVSRLTVRKAIQELEQKGILYKIQGKGTFVNDRKKAGEHGNKIGVISHLYKGVFMEILEGIEEGLESESYEYLLRNSQNDYKKEENIIQAMKEEGVSGFIISPVEDQKDSNVIFNLKAEGYPIVLIDRKLNYCETDCVLSDNIDGGFKATEYLIKLGHSRIAFLTYEFRKTSSVRDRIKGYRYALKLNQLELDERLLFSYNKDLSREEKNKILYNFIKENKPTAIIGVHNDVALDVVKMCRANNISIPEDISIICFDNTDIVRHLEVPLTTLVQDARKIGYDAAKLIVKKINSQEETGIMNQIYHPVKLIERNSCKSILQKNEGHHHHHH", "soluble on expression in E. coli": "soluble"},
      {"sequence": "MVYFAYGSNLCLEQMKKRCPEAIPMISVHLDDYKLVYNKYADIIPCEGEKVYGAIYEISLNDLKNLDKYEEYSDLYEKIDLIVQDINGISYEAFAYVMNEKGDKTPDKRYLDIINKGYEDWGIIY", "soluble on expression in E. coli": "not soluble"},
      {"sequence": "MTIGQKNTNIDPRFPHHHPRPQSFWEARAKALESLLIEKGHLSSDAIERVIKHYEHELGPMNGAKVVAKAWTDPAFKQRLLEDSETVLRELGYYGLQGEHIRVVENTDTVHNVVVCTLCSCYPWPLLGLPPSWYKEPAYRARVVKEPRQVLKEFGLDLPDSVEIRVWDSSSEIRFMVLPQRPEGTEGMTEEELAKLVTRDSMIGVAKIEPPKVTVG", "soluble on expression in E. coli": "soluble"},
      {"sequence": "MAHHHHHHMCKDKNEKKNYEHVNANEKNGYLASEKNELTKNKVEEHTYDYDYVVIGGGPGGMASAKEAAAHGARVLLFDYVKPSSQGTKWGIGGTCVNVGCVPKKLMHYAGHMGSIFKLDSKAYGWKFDNLKHDWKKLVTTVQSHIRSLNFSYMTGLRSSKVKYINGLAKLKDKNTVSYYLKGDLSKEETVTGKYILIATGCRPHIPDDVEGAKELSITSDDIFSLKKDPGKTLVVGASYVALECSGFLNSLGYDVTVAVRSIVLRGFDQQCAVKVKLYMEEQGVMFKNGILPKKLTKMDDKILVEFSDKTSELYDTVLYAIGRKGDIDGLNLESLNMNVNKSNNKIIADHLSCTNIPSIFAVGDVAENVPELAPVAIKAGEILARRLFKDSDEIMDYSYIPTSIYTPIEYGACGYSEEKAYELYGKSNVEVFLQEFNNLEISAVHRQKHIRAQKDEYDLDVSSTCLAKLVCLKNEDNRVIGFHYVGPNAGEVTQGMALALRLKVKKKDFDNCIGIHPTDAESFMNLFVTISSGLSYAAKGGCGGGKCG", "soluble on expression in E. coli": "soluble"},
      {"sequence": "MTQDTQLTFEARDEFNRKSIAEKVITLLRSDITVSPLVIDGSWGLGKTEFCQKLLSLMSTEETHHLIYIDAFKADHADEPLLTVLAKVLEVLPSQEEQQGLIQKAIPALRYGLKTGGKALVAHILRQDTDSIINGFDEEVKQVADKAIDASVESLLKDHVEAESSLQALQQALKSIAEQKPIVLFIDELDRCRPNFSVLMLETIKHTFDVEGVQFVLITNTNQLKASINHCYGPTIDAQRYLDKFIRFSFTLPHTTNENRHDVTMASVTHYKNLVAKSERLQGLSLDRDSDFWLVAQVINTNNISLREVETLVRHIEIYQALFDDQPLSNHTQWAYRLMALLGVLLISFKPNLAKSALINNLDAKDLGNFLGVHSLPKLENNQHPTHCDTLVFMLASECKYNSDFYVPDNPQDKERWEGEANEYFRGRYNLTRNGRMSLVTGAIKGLGLSVNLEHHHHHH", "soluble on expression in E. coli": "not soluble"},
      {"sequence": "MPVAHVALPVPLPRTFDYLLPEGMTVKAGCRVRVPFGKQQERIGIVVSVSDASELPLNELKAVVEVLDSEPVFTHSVWRLLLWAADYYHHPIGDVLFHALPILLRQGRPAANAPMWYWFATEQGQAVDLNSLKRSPKQQQALAALRQGKIWRDQVATLEFNDAALQALRKKGLCDLASETPEFSDWRTNYAVSGERLRLNTEQATAVGAIHSAADTFSAWLLAGVTGSGKTEVYLSVLENVLAQGKQALVMVPEIGLTPQTIARFRERFNAPVEVLHSGLNDSERLSAWLKAKNGEAAIVIGTRSALFTPFKNLGVIVIDEEHDSSYKQQEGWRYHARDLAVYRAHSEQIPIILGSATPALETLCNVQQKKYRLLRLTRRAGNARPAIQHVLDLKGQKVQAGLAPALITRMRQHLQADNQVILFLNRRGFAPALLCHDCGWIAECPRCDHYYTLHQAQHHLRCHHCDSQRPVPRQCPSCGSTHLVPVGLGTEQLEQTLAPLFPGVPISRIDRDTTSRKGALEQQLAEVHRGGARILIGTQMLAKGHHFPDVTLVALLDVDGALFSADFRSAERFAQLYTQVAGRAGRAGKQGEVVLQTHHPEHPLLQTLLYKGYDAFAEQALAERRMMQLPPWTSHVIVRAEDHNNQHAPLFLQQLRNLILSSPLADEKLWVLGPVPALAPKRGGRWRWQILLQHPSRVRLQHIINGTLALINTIPDSRKVKWVLDVDPIEG", "soluble on expression in E. coli": "soluble"},
      {"sequence": "PTGNNAEICLLPLDYGPCRALLLRYYYDRYTQSCRQFLYGGCEGNANNFYTWEACDDACWRIE", "soluble on expression in E. coli": "soluble"},
      {"sequence": "MGSDKIHHHHHHLFTSLVKQAEEMGLLDLSSVAIDATKVEAYEKSVPRKNIIQNGNAADWGIKSDTNGNPIKWFGYKLHIGTDVRSGLPIAMKVTPANYSDSSVALELVEKCCANTQSKIVYFLMDAGYDHREIYSVIRDKYHAQAIIALNKRGAKQPPEGFDWDGTPICSARYRMVYWGSYQGVNKFRCPHIMGKCDCPFGSAWCSDSNYGMVVKTKVKDDPRLFSSPHRGSANWQKQYNLRTYSERCFSRFKENLGLEDGLNVRKITKVETHAYLCAITMIAAVIAINQDSSTRSSAA", "soluble on expression in E. coli": "not soluble"},
      {"sequence": "MFKYSKDGVSVLTILDTRRAKINGLFPVKVQVVFRRKQKYYSTGKELSKEDWDRLLKAKSQLLMEVRTDIESSFSIIKQQVSELIQKGEFSFEILSIRLGRHTKEINLRTAFELKMKELEDNEQASTYLNYRSALKSLECFGGTNIPLDRITVEWLKHCERFWISNGKSYSSVSIYFRTLKCILNRAVRDGILKESSFPFGKNKYEIPEGHGRKLALTLPEIKRVMSFQDSTNELEEFRDLWFFSYLCNGINFMDLLFLQYSNIVDGEICFIRSKTSRTTKHSKEIRATITPEMWDIIHKWGNPNISPQTYIFKYAKGNEDAFEKIKLVRRIVTKCNRKLKKIAQGTGIAQLTTYTARHSFATVLKRGGAKTSYISESLGHSNLTVTENYLACFEKEERIRNARLLTNFDNKM", "soluble on expression in E. coli": "not soluble"}
    ]}
  ]
}
